According to the RNAGym collection of RNA variant scans (doi:10.1073/pnas.2313332121):
Variants at the floor of the assay were thinned out.

B1: TPR 5TU (parent)
chain: GGAUCUUCUCGAUCUAACAAAAAAGACAAAUCUGCCACAAAGCUUGAGAGCAUCUUCGGAUGCAGAGGCGGCAGCCUUCGGUGGCGCGAUAGCGCCAACGUUCUCAACUAUGACACGCAAAACGCGUGCUCCGUUGAAUGGAGUUUAUCAUG

Variants of: B1
Experiment: polymerase ribozyme fitness, log enrichment relative to wild type (log ratio); higher = more active; in vitro selection for triplet polymerase activity
Method in brief: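 The heterodimeric triplet polymerase ribozyme's subunits were each mutagenized into PCR-built libraries and transcribed. Every library was selected once, in triplicate, by annealing with a biotinylated primer, the partner subunit and triplets, incubating frozen at −7 °C, gel-excising extended constructs, capturing on streptavidin beads and running RT-PCR. Input and output libraries were Illumina-sequenced, with genotypes kept only at ≥10 input reads and ≥1 read per output. Fitness, from inverse-variance-weighted replicate averages, is the base-2 logarithm of genotype enrichment over wild-type enrichment.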

Variant	polymerase ribozyme fitness (log ratio)
C72U C76A G84A C87U A91G A106G C125A	≤ -4.2
C76A C79U C125U G140U	≤ -4.2
C72U A91U G92A U127G	≤ -4.2
A73G C95U A122U C125U U127G A138G	≤ -4.2
A73U C79U G88A A119G G124U C149A	≤ -4.2
C76G G140U U151G	≤ -4.2
A73U G80U	-2.82
A73G A142C	-1.76
C75A C103G	≤ -4.2
A73G C93A U146C	-2.15
C76U A150U	0.843
C76U A150C	-3.79
C76G A91U A106G U135A	≤ -4.2
C72G C96U C116U	≤ -4.2
C75A G80C C105G	≤ -4.2
C75G C85G A147U	≤ -4.2
C76A C96U G140U	-3.67
C75G G84A	-3.93
A73U C76A U77A G94C U104G A106G C108U	≤ -4.2
A73G G88A A107G	≤ -4.2
A73U C99A C103G C114U C123G	≤ -4.2

Variant	polymerase ribozyme fitness (log ratio)
A73U C95A U104G	-4.05
C76A C95U A142G	-1.94
C76U C85A A106C	≤ -4.2
C76A C96A G128C	≤ -4.2
G74C C118U	-4.02
A73G G128C	-3.67
C76U A115C	-0.614
C72U A147U	0.651
C72U A147C	-1.72
C75A C95U A98U C103U U145G U146G	≤ -4.2
C76A G83C A137G	-3.62
C76U	0.0494
C76A	-0.118
C75A C79U G94C	≤ -4.2
C75U C93G A121U C123U	-2.27
C76G A98G A113U U151G	≤ -4.2
C75G U134G	-4
C72U A91U C96G	≤ -4.2
C75U U139A G140C	-4.11
A73C A113C	≤ -4.2
C72G U77G G84A C114G	≤ -4.2

Variant	polymerase ribozyme fitness (log ratio)
A73G C118G C132G	≤ -4.2
C76G G84U U145C	≤ -4.2
C76A C85U U145C	-0.371
C76G C96G C99G G140U U148G	≤ -4.2
C72U C93U	-0.741
C75G A89U C93G U104G A147C	≤ -4.2
A73U G83C G143C	≤ -4.2
C76A A119U U135C C149G	≤ -4.2
C75U G84U U148A	≤ -4.2
C75U G83U C129G U144G	≤ -4.2
A73U C93U G136A	-1.59
C76A A142G U146A	-1.52
C76G C87G U102G C108A	≤ -4.2
G74C C105U A107G	≤ -4.2
C76U C85U	-2.03
A73C G81C A110G A121G	≤ -4.2
C76A C96U U145G	-0.785
C75G G88A U146G	≤ -4.2
C75U G84U U101C	-1.45
C76A C125G U144G	-2.22
C75A C87U	-3.81

Variant	polymerase ribozyme fitness (log ratio)
C76U A91U G92A	-4.02
A73U C123U	-0.392
A73G C76U C93A C99A U145A	≤ -4.2
A73G C85U C96G C108G U127G G136C	≤ -4.2
C75U C93U	-0.656
C75U C93G	-3
A73U G84A U144C	-1.83
C76U A119G G126U U139G	-0.649
C76A U104A C125A A142C U144A	≤ -4.2
C76A G94A	-0.598
G74A A106G A122U	≤ -4.2
C76A G83U A106G	-3.45
C72U C87U C105A	-3.79
A73C G94A C95U U102C G126C G141U	≤ -4.2
C75U G136C	-2.6
A73U C96G	-1.8
A73G C96U A119U	-0.341
C75U G94C A122G U145A	-3.35
G74A C85G	-3.83
G74A C85U	-3.54
